Measured values from patent publication EP1471146A2 (Novartis AG, dated 2004).

Molecular target: the molecule itself
Assay: Western blot of soluble nuclear extracts, seminative electrophoresis (self-association, homotrimer)

B1: recombinant adenovirus type 5 (Ad5) fiber protein expressed from pCLF in cell lines 211A, 211B and 211R (other)
chain: MKRARPSEDTFNPVYPYDTETGPPTVPFLTPPFVSPNGFQESPPGVLSLRLSEPLVTSNGMLALKMGNGLSLDEAGNLTSQNVTTVSPPLKKTKSNINLEISAPLTVTSEALTVAAAAPLMVAGNTLTMQSQAPLTVHDSKLSIATQGPLTVSEGKLALQTSGPLTTTDSSTLTITASPPLTTATGSLGIDLKEPIYTQNGKLGLKYGAPLHVTDDLNTLTVATGPGVTINNTSLQTKVTGALGFDSQGNMQLNVAGGLRIDSQNRRLILDVSYPFDAQNQLNLRLGQGPLFINSAHNLDINYNKGLYLFTASNNSKKLEVNLSTAKGLMFDATAIAINAGDGLEFGSPNAPNTNPLKTKIGHGLEFDSNKAMVPKLGTGLSFDSTGAITVGNKNNDKLTLWTTPAPSPNCRLNAEKDAKLTLVLTKCGSQILATVSVLAVKGSLAPISGTVQSAHLIIRFDENGVLLNNSFLDPEYWNFRNGDLTEGTAYTNAVGFMPNLSAYPKSHGKTAKSNIVSQVYLNGDKTKPVTLTITLNGTQETGDTTPSAYSMSFSWDWSGHNYINEIFATSSYTFSYIAQE
notes: Monomer 62 kD, homotrimer 186 kD; Expressed in 293-derived lines 211A, 211B and 211R; also called recombinant fiber; type 5 fiber protein
B1: binds.
